Measured values from PMC6783867, “Synthesis and Characterization of Cry2Ab–AVM Bioconjugate: Enhanced Affinity to Binding Proteins and Insecticidal Activity” (Toxins, 2019).

Target: T1, 10th and 11th cadherin repeat domains of the Plutella xylostella cadherin (PxCR10–11), GST-tagged (Plutella xylostella)
T1 construct: Plutella xylostella cadherin, 10th and 11th CR domains, residues 1258–1602 aa; also called truncated recombinant P. xylostella cadherin; source: Escherichia coli expression system, purified (GST-Sefinose prepacked gravity column)
Experiment: BLI; Octet Red 96; GST-tagged PxCR10–11 loaded onto anti-GST biosensors; toxin 38.5 to 576.9 nM in solution; 400 s association, 400 s dissociation; 10 mM GSH, 50 mM Tris, pH 8.0; 1:1 binding model
Conditions: both partners purified

B1: Bacillus thuringiensis insecticidal protein (Bt toxin) Cry2Ab30 (natural protein)
chain: MNSVLNSGRTTICDAYNVAAHDPFSFQHKSLDTVQKEWTEWKKNNHSLYLDPIVGTVASFLLKKVGSLVGKRILSELRNLIFPSGSTNLMQDILRETEKFLNQRLNTDTLARVNAELTGLQANVEEFNRQVDNFLNPNRNAVPLSITSSVNTMQQLFLNRLPQFQMQGYQLLLLPLFAQAANLHLSFIRDVILNADEWGISAATLRTYRDYLKNYTRDYSNYCINTYQSAFKGLNTRLHDMLEFRTYMFLNVFEYVSIWSLFKYQSLLVSSGANLYASGSGPQQTQSFTSQDWPFLYSLFQVNSNYVLNGFSGARLSNTFPNIVGLPGSTTTHALLAARVNYSGGISSGDIGASPFNQNFNCSTFLPPLLTPFVRSWLDSGSDREGVATVTNWQTESFETTLGLRSGAFTARGNSNYFPDYFIRNISGVPLVVRNEDLRRPLHYNEIRNIASPSGTPGGARAYMVSVHNRKNNIHAVHENGSMIHLAPNDYTGFTISPIHATQVNNQTRTFISEKFGNQGDSLRFEQNNTTARYTLRGNGNSYNLYLRVSSIGNSTIRVTINGRVYTATNVNTTTNNDGVNDNGARFSDINIGNVVASSNSDVPLDINVTLNSGTQFDLMNIMLVPTNISPLY
Kd: 28.7 nM
